# Source: article PMC4232046, “The Janus transcription factor HapX controls fungal adaptation to both iron starvation and iron excess” (The EMBO Journal, 2014)
# Target: the molecule itself
# Test: SEC-MALS; static light scattering (miniDawn TREOS, Optilab T-rEX refractometer) after Superdex 200 10/300 GL; molar mass by ASTRA 6
protein,measurement,value
"Aspergillus fumigatus HapX(24–158) (domain or fragment, UniProt Q4WER3 24-158, looked up, Cloned in pMAL-c2X with an extended N-terminus including a TEV site; Theoretical mass of the dimer 31.36 kDa; also called peptide corresponding to residues 24–158 of HapX) SPSPGPGTPGSITSKEWVIPPRPKPGRKPATDTPPTKRKAQNRAAQRAFRERRAARVNELEEQIKKIEDEHEIHIAAFKEQITNLSREVEQCRSEMTWWRDRCHALEKEVSVERSAKEAIVKEFRSSLSDREAVR",stoichiometry N,2
